# From patent US20220024981A1 (Novartis, published 2022)
# Bridge positions count the residues as written; N and C are the ends. Square brackets hold non-standard residues; d marks the D form. Bip = N[C@@H](Cc1ccc(-c2ccccc2)cc1)C(=O)O; Phe(4-Cl) = N[C@@H](Cc1ccc(Cl)cc1)C(=O)O; NMeF = CN[C@@H](Cc1ccccc1)C(=O)O; NMeE = CN[C@@H](CCC(=O)O)C(=O)O; NMeA = CN[C@@H](C)C(=O)O
# B1: Ac*-F-V-D-T-T-A-(N-Me)F-B-(N-Me)A-E-A-P-C*-G-NH2 (peptide)
# peptide: {CH2CO}-FVDTTA[NMeF][Bip][NMeA]EAPCG-NH2
# modifications: thioether N-13
# SMILES: CC(C)[C@@H]1NC(=O)[C@H](Cc2ccccc2)NC(=O)CSC[C@@H](C(=O)NCC(N)=O)NC(=O)[C@@H]2CCCN2C(=O)[C@H](C)NC(=O)[C@H](CCC(=O)O)NC(=O)[C@H](C)N(C)C(=O)[C@H](Cc2ccc(-c3ccccc3)cc2)NC(=O)[C@H](Cc2ccccc2)N(C)C(=O)[C@H](C)NC(=O)[C@H]([C@@H](C)O)NC(=O)[C@H]([C@@H](C)O)NC(=O)[C@H](CC(=O)O)NC1=O
# notes: also called 1-16; Ex. No. 1-16
# B2: Ac*-F-V-P-T-T-A-(N-Me)F-B-(N-Me)A-E-A-P-C*-G-NH2 (peptide)
# peptide: {CH2CO}-FVPTTA[NMeF][Bip][NMeA]EAPCG-NH2
# modifications: thioether N-13; not fully specified
# notes: The three-letter form of the same entry prints L-Arg at position 11 where the one-letter form prints A; also called 1-21; Ex. No. 1-21
# B3: Ac*-F-V-N-T-T-A-(N-Me)F-B-(N-Me)A-Q-A-P-C*-G-NH2 (peptide)
# peptide: {CH2CO}-FVNTTA[NMeF][Bip][NMeA]QAPCG-NH2
# modifications: thioether N-13
# SMILES: CC(C)[C@@H]1NC(=O)[C@H](Cc2ccccc2)NC(=O)CSC[C@@H](C(=O)NCC(N)=O)NC(=O)[C@@H]2CCCN2C(=O)[C@H](C)NC(=O)[C@H](CCC(N)=O)NC(=O)[C@H](C)N(C)C(=O)[C@H](Cc2ccc(-c3ccccc3)cc2)NC(=O)[C@H](Cc2ccccc2)N(C)C(=O)[C@H](C)NC(=O)[C@H]([C@@H](C)O)NC(=O)[C@H]([C@@H](C)O)NC(=O)[C@H](CC(N)=O)NC1=O
# notes: also called 1-18; Ex. No. 1-18
# B4: Ac*-F-V-P-T-T-F-(N-Me)A-B-(N-Me)A-E-A-P-C*-NHEt (peptide)
# peptide: {CH2CO}-FVPTTF[NMeA][Bip][NMeA]EAPC-NHEt
# modifications: thioether N-13
# SMILES: CCNC(=O)[C@@H]1CSCC(=O)N[C@@H](Cc2ccccc2)C(=O)N[C@@H](C(C)C)C(=O)N2CCC[C@H]2C(=O)N[C@@H]([C@@H](C)O)C(=O)N[C@@H]([C@@H](C)O)C(=O)N[C@@H](Cc2ccccc2)C(=O)N(C)[C@@H](C)C(=O)N[C@@H](Cc2ccc(-c3ccccc3)cc2)C(=O)N(C)[C@@H](C)C(=O)N[C@@H](CCC(=O)O)C(=O)N[C@@H](C)C(=O)N2CCC[C@H]2C(=O)N1
# notes: also called 3-2; Ex. No. 3-2
# B5: Ac*-F-V-N-T-T-F-(N-Me)A-B-(N-Me)A-(N-Me)E-A-P-C*-NHEt (peptide)
# peptide: {CH2CO}-FVNTTF[NMeA][Bip][NMeA][NMeE]APC-NHEt
# modifications: thioether N-13
# SMILES: CCNC(=O)[C@@H]1CSCC(=O)N[C@@H](Cc2ccccc2)C(=O)N[C@@H](C(C)C)C(=O)N[C@@H](CC(N)=O)C(=O)N[C@@H]([C@@H](C)O)C(=O)N[C@@H]([C@@H](C)O)C(=O)N[C@@H](Cc2ccccc2)C(=O)N(C)[C@@H](C)C(=O)N[C@@H](Cc2ccc(-c3ccccc3)cc2)C(=O)N(C)[C@@H](C)C(=O)N(C)[C@@H](CCC(=O)O)C(=O)N[C@@H](C)C(=O)N2CCC[C@H]2C(=O)N1
# notes: also called 3-1; Ex. No. 3-1
# B6: Ac*-F-V-P-T-T-F-(N-Me)A-(p-Cl)F-(N-Me)A-D-A-P-C*-NH2 (peptide)
# peptide: {CH2CO}-FVPTTF[NMeA][Phe(4-Cl)][NMeA]DAPC-NH2
# modifications: thioether N-13
# SMILES: CC(C)[C@@H]1NC(=O)[C@H](Cc2ccccc2)NC(=O)CSC[C@@H](C(N)=O)NC(=O)[C@@H]2CCCN2C(=O)[C@H](C)NC(=O)[C@H](CC(=O)O)NC(=O)[C@H](C)N(C)C(=O)[C@H](Cc2ccc(Cl)cc2)NC(=O)[C@H](C)N(C)C(=O)[C@H](Cc2ccccc2)NC(=O)[C@H]([C@@H](C)O)NC(=O)[C@H]([C@@H](C)O)NC(=O)[C@@H]2CCCN2C1=O
# notes: also called 2-2; Ex. No. 2-2
# B7: Ac*-F-V-P-T-T-F-(N-Me)A-(p-Cl)F-(N-Me)A-P-A-P-C*-NH2 (peptide)
# peptide: {CH2CO}-FVPTTF[NMeA][Phe(4-Cl)][NMeA]PAPC-NH2
# modifications: thioether N-13
# SMILES: CC(C)[C@@H]1NC(=O)[C@H](Cc2ccccc2)NC(=O)CSC[C@@H](C(N)=O)NC(=O)[C@@H]2CCCN2C(=O)[C@H](C)NC(=O)[C@@H]2CCCN2C(=O)[C@H](C)N(C)C(=O)[C@H](Cc2ccc(Cl)cc2)NC(=O)[C@H](C)N(C)C(=O)[C@H](Cc2ccccc2)NC(=O)[C@H]([C@@H](C)O)NC(=O)[C@H]([C@@H](C)O)NC(=O)[C@@H]2CCCN2C1=O
# notes: also called 2-1; Ex. No. 2-1
# B8: Ac*-F-V-A-T-T-F-(N-Me)A-B-(N-Me)A-K-A-P-C*-G-NH2 (peptide)
# peptide: {CH2CO}-FVATTF[NMeA][Bip][NMeA]KAPCG-NH2
# modifications: thioether N-13
# SMILES: CC(C)[C@@H]1NC(=O)[C@H](Cc2ccccc2)NC(=O)CSC[C@@H](C(=O)NCC(N)=O)NC(=O)[C@@H]2CCCN2C(=O)[C@H](C)NC(=O)[C@H](CCCCN)NC(=O)[C@H](C)N(C)C(=O)[C@H](Cc2ccc(-c3ccccc3)cc2)NC(=O)[C@H](C)N(C)C(=O)[C@H](Cc2ccccc2)NC(=O)[C@H]([C@@H](C)O)NC(=O)[C@H]([C@@H](C)O)NC(=O)[C@H](C)NC1=O
# notes: also called 1-22; Ex. No. 1-22
# B9: Ac*-F-V-N-T-T-F-(N-Me)A-B-(N-Me)A-K-A-P-C*-G-NH2 (peptide)
# peptide: {CH2CO}-FVNTTF[NMeA][Bip][NMeA]KAPCG-NH2
# modifications: thioether N-13
# SMILES: CC(C)[C@@H]1NC(=O)[C@H](Cc2ccccc2)NC(=O)CSC[C@@H](C(=O)NCC(N)=O)NC(=O)[C@@H]2CCCN2C(=O)[C@H](C)NC(=O)[C@H](CCCCN)NC(=O)[C@H](C)N(C)C(=O)[C@H](Cc2ccc(-c3ccccc3)cc2)NC(=O)[C@H](C)N(C)C(=O)[C@H](Cc2ccccc2)NC(=O)[C@H]([C@@H](C)O)NC(=O)[C@H]([C@@H](C)O)NC(=O)[C@H](CC(N)=O)NC1=O
# notes: also called 1-23; Ex. No. 1-23
# B10: Ac*-F-V-D-T-T-F-(N-Me)A-B-(N-Me)A-E-S-P-C*-G-NH2 (peptide)
# peptide: {CH2CO}-FVDTTF[NMeA][Bip][NMeA]ESPCG-NH2
# modifications: thioether N-13
# SMILES: CC(C)[C@@H]1NC(=O)[C@H](Cc2ccccc2)NC(=O)CSC[C@@H](C(=O)NCC(N)=O)NC(=O)[C@@H]2CCCN2C(=O)[C@H](CO)NC(=O)[C@H](CCC(=O)O)NC(=O)[C@H](C)N(C)C(=O)[C@H](Cc2ccc(-c3ccccc3)cc2)NC(=O)[C@H](C)N(C)C(=O)[C@H](Cc2ccccc2)NC(=O)[C@H]([C@@H](C)O)NC(=O)[C@H]([C@@H](C)O)NC(=O)[C@H](CC(=O)O)NC1=O
# notes: also called 1-17; Ex. No. 1-17
# B11: Ac*-F-V-S-T-T-F-(N-Me)A-B-(N-Me)A-E-A-P-C*-G-NH2 (peptide)
# peptide: FVSTTFAXAEAPCG
# modifications: not fully specified; N-terminal acetyl (Ac*) joined by a sulfide bond to the side chain of Cys13 (cyclic); 7: L-(N-Me)Ala; 8: L-Bip; 9: L-(N-Me)Ala; C-terminal amide (NH2)
# notes: also called 1-24; Ex. No. 1-24
# B12: Ac*-F-E-N-T-T-F-(N-Me)A-B-(N-Me)A-A-S-P-C*-G-NH2 (peptide)
# peptide: {CH2CO}-FENTTF[NMeA][Bip][NMeA]ASPCG-NH2
# modifications: thioether N-13
# SMILES: C[C@@H]1NC(=O)[C@H](C)N(C)C(=O)[C@H](Cc2ccc(-c3ccccc3)cc2)NC(=O)[C@H](C)N(C)C(=O)[C@H](Cc2ccccc2)NC(=O)[C@H]([C@@H](C)O)NC(=O)[C@H]([C@@H](C)O)NC(=O)[C@H](CC(N)=O)NC(=O)[C@H](CCC(=O)O)NC(=O)[C@H](Cc2ccccc2)NC(=O)CSC[C@@H](C(=O)NCC(N)=O)NC(=O)[C@@H]2CCCN2C(=O)[C@H](CO)NC1=O
# notes: also called 1-27; Ex. No. 1-27
# Target: T1, Human PCSK9 Alexa Fluor 647 (human, UniProt Q8NBP7 31-692, limits assumed, Alexa Fluor 647 label (site not stated))
# T1 construct: Labelled tracer of the TR-FRET assay, 16 nM stock; also called proprotein convertase subtilisin/kexin type 9
# Experiment: TR-FRET competition: PCSK9-Alexa Fluor 647 vs LDLR ECD-Eu kryptate
# Description: A Proxi plate-low volume assay plate was used for the assay. […] Following a 30 minute incubation, 5 uL of 4 nM Human LDLR extracellular domain-Europium Kryptate was added and the mixture was incubated for an additional 2 hours.
# The TR-FRET signal was measured on an EnVision or PheraStar instrument with a 60 μs delay, 330 nm excitation and 665 nm emission (FRET), and 330 nm excitation and 615 nm (Europium). The FRET ratio (FRET/Europium) was used for calculations.
# T1 sequence (Q8NBP7 31-692 limits assumed): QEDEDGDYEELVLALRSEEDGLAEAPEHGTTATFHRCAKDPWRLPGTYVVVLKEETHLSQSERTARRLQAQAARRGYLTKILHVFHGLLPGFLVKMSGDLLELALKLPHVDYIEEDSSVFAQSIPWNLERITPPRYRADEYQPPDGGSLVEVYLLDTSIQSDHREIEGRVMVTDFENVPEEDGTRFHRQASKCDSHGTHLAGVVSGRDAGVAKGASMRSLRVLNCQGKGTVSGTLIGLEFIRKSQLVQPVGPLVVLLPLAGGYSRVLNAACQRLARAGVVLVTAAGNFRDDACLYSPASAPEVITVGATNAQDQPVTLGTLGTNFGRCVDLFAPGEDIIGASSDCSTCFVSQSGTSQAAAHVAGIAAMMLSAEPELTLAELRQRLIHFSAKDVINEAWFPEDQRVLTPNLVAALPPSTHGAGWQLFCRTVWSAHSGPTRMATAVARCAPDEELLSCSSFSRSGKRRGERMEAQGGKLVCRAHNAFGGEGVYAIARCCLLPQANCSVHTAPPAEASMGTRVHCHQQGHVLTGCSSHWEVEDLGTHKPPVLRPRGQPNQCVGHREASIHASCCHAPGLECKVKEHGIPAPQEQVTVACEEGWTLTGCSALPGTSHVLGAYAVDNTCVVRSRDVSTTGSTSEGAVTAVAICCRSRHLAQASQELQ
IC50 [nM],Maximum % inhibition [%],Binder
7.4,91,B1
7.2,81,B2
11,53,B3
4.2,83,B4
85,61,B5
0.4,72,B6
11.5,50,B7
12,49,B8
22,36,B9
17,91,B10
6.8,70,B11
410,55,B12
